Data on 54 variants can be found in the RNAGym collection of RNA variant scans (doi:10.7554/elife.80360).

Sequences and labels used below:
B1: Twister Ribozyme (parent)
chain: AACACUGCCAAUGCCGGUCCCAAGCCCGGAUAAAAGUGGAGGGGGCGG

The variants in the data set derive from B1. In words: self-cleavage, relative activity (ratio to wild type); higher = more cleavage; co-transcriptional.
In the case of AACAGUGCCAAUGCCGGUCCCAAGCCCGGAUAAAAGUGGAGGGGGCAG [C5G G47A], the self-cleavage stood at 0.547.
For the variant AACACUGCCAAUGCCGGUCCCAACCCCGGAUAAAAGUGGAGCGGGCGG [G24C G42C], the self-cleavage came to 0.0931.
Turning to AACACUGCCUAUGCCGGUCCCAAGGCCGGAUAAAAGUGGAGGGGGCGG [A10U C25G], the self-cleavage was found to be 0.194.
Take AACACUGCCAACGCCGGUCCCAACCCCGGAUAAAAGUGGAGGGGGCGG [U12C G24C]: the self-cleavage was found to be 0.0606.
In the case of AACACUGCCAAUGCCGGUCCCAAUCCCGGAUAAAACUGGAGGGGGCGG [G24U G36C] it was 0.0879; in that of GAUACUGCCAAUGCCGGUCCCAAGCCCGGAUAAAAGUGGAGGGGGCGG [A1G C3U], 0.294.
As for AACACUGCCAAUGCCCGUCCCAAGCCCGGAUAAAAGUGGAGGGGGGGG [G16C C46G], the self-cleavage worked out at 0.262.
Consider AACACUGCCAAUGCCGGUCCCAAGCCCGGAUAAAAGUGGAGUUGGCGG [G42U G43U], for which the self-cleavage worked out at 0.127.
In the case of AACACCGCGAAUGCCGGUCCCAAGCCCGGAUAAAAGUGGAGGGGGCGG [U6C C9G] it was 0.122; in that of AACACUGCCAAUGCCGGUCCCAAGCCCGCAUAAAAAUGGAGGGGGCGG [G29C G36A], 0.188.
Then AACACUGCCAAUACCGGUCCCAAGCCCGGAUAAAAGUGGAGGGGGCGA [G13A G48A], with 0.659; and AACACUGCCAAUUCCGGUCCCAAGCCCGGAUAAAACUGGAGGGGGCGG [G13U G36C], with 0.0949; and AACACUCCCAAUGCCGGUGCCAAGCCCGGAUAAAAGUGGAGGGGGCGG [G7C C19G], with 0.0745.
In the case of AACAGUGCCAAUGCCGGUCCCAAGCCCGCAUAAAAGUGGAGGGGGCGG [C5G G29C] it was 0.306.
For the variant AACACUGGCAAUGCCUGUCCCAAGCCCGGAUAAAAGUGGAGGGGGCGG [C8G G16U], the self-cleavage came out at 0.108.
Then CACACUGCCAAUGCCGGUCCCAAGCCCGGAUAAAGGUGGAGGGGGCGG [A1C A35G], with 0.186; and AACACGGCCAAUGCCGGUCUCAAGCCCGGAUAAAAGUGGAGGGGGCGG [U6G C20U], with 0.236.
In the case of AACACUGCCAAUGCCGGUCCCAAGCCCGCGUAAAAGUGGAGGGGGCGG [G29C A30G] it was 0.91.
In the case of AACACUGCUAAUGCCGGUCCCAAGCCCGGAUAAAAGUAGAGGGGGCGG [C9U G38A], the self-cleavage was 0.177.
AUCACUGCCAAUGCCUGUCCCAAGCCCGGAUAAAAGUGGAGGGGGCGG [A2U G16U]: the self-cleavage was found to be 0.309.
Then AACCCUGCCAAUGCCGGUCCCAAGCCCGGAUAAUAGUGGAGGGGGCGG [A4C A34U], with 0.0292; and AACACUGCCAAUGCCGGUCCCAAGCCCGGAUAAGAGUGUAGGGGGCGG [A34G G39U], with 0.102; and AACACUGACAAUGCUGGUCCCAAGCCCGGAUAAAAGUGGAGGGGGCGG [C8A C15U], with 0.365.
On to AACACUGCCAAGGCCAGUCCCAAGCCCGGAUAAAAGUGGAGGGGGCGG [U12G G16A], for which the self-cleavage was determined as 0.864.
Then AACACUGCAAAUGCCGGUCCCAAGCCCGGAUAAAAGUGGAGGUGGCGG [C9A G43U], with 0.149.
Turning to AACACUGCCAAUGCCCGUCCCAAGCCCGGAUAAAAGUGGACGGGGCGG [G16C G41C], the self-cleavage was 0.0971.
Regarding AACACUGCCAAUCCCGGUCCCAAGCCUGGAUAAAAGUGGAGGGGGCGG [G13C C27U], the self-cleavage is 0.0915.
As to AACACUGCCAAUGACGGUCCCAAGCCCGGAUGAAAGUGGAGGGGGCGG [C14A A32G], the self-cleavage was 0.857.
In the case of AACACUACCAAUGUCGGUCCCAAGCCCGGAUAAAAGUGGAGGGGGCGG [G7A C14U] it was 0.43; in that of AACACUGCCAAUUCCGGUCCCAAGCCCGGAUAAAUGUGGAGGGGGCGG [G13U A35U], 0.696; in that of AACAGUGCCAAUGCCGGUCCCACGCCCGGAUAAAAGUGGAGGGGGCGG [C5G A23C], 0.0471.
In the case of AACACUGCCGAUGCCGGUCCCAAGCCCGGAUAAAAGUGGAGGGGGCAG [A10G G47A] it was 0.821; in that of AACACUACCAAUGCCGGUCCCAAUCCCGGAUAAAAGUGGAGGGGGCGG [G7A G24U], 0.0739; in that of AACACUGCCAAUGCCGGUUACAAGCCCGGAUAAAAGUGGAGGGGGCGG [C19U C20A], 0.107.
In the case of AACACUGCCAAUGCCGGUCCCAAGCCCGUAUAAAAAUGGAGGGGGCGG [G29U G36A] it was 0.481; in that of AACACUGCCAAUGCCUGUCCCAAGCCCGGAUAAAAAUGGAGGGGGCGG [G16U G36A], 0.426.
For the variant AACACUGCAAAUGCCGGUCCCAAGCCCGGAUAAAAGUCGAGGGGGCGG [C9A G38C], the self-cleavage was 0.589.
For AACACUGCCAAUGCCGGGCCCAAGCCCGGAUAAAAGUGGUGGGGGCGG [U18G A40U], the self-cleavage amounted to 0.0452.
Then AACACUGCCAAUGCCGGUCCCAAGCCCGGAUAAAAGUGUAGGCGGCGG [G39U G43C], with 0.132; and AACACUGCCAAUGCCGGUCCCAAGCCCCGUUAAAAGUGGAGGGGGCGG [G28C A30U], with 0.857; and AACACUGCCAAUGCCGGUCCCAAGCCCCGAUAAAAGUGGAGGAGGCGG [G28C G43A], with 0.228.
Then AACACUGCCAAUGCCGGUCCCAAGCCCUGAUAAACGUGGAGGGGGCGG [G28U A35C], with 0.888.
Then AACACUGCCAAUGCCGGUCCCAAGCCCGGAUAAAAGUGAAGGGGUCGG [G39A G45U], with 0.231.
In the case of AACACUGCCAAUGCCGGUCCCAAGCCCGAAUAAAAGUGGAGGGGGCGU [G29A G48U], the self-cleavage was 0.916.
For the variant AACACUGCCAAUGCCGGUCCCGAGCCCGGAUAAAAGUGCAGGGGGCGG [A22G G39C], the self-cleavage worked out at 0.0779.
Then AACACCGCCAAUGCCGGUCCCAAGCCCGGAUAUAAGUGGAGGGGGCGG [U6C A33U], with 0.319; and AACAAUGCCAAUGCCGGUCCCAAGCCCGGUUAAAAGUGGAGGGGGCGG [C5A A30U], with 0.498; and AACACUGCCAAUGCCGGCCCCAAGCCCGGAUAAAAGUGGAGGGGGCUG [U18C G47U], with 0.288.
On to AACACUGCCAAUGCCGGUCCCAAGCGCGGAUAAAUGUGGAGGGGGCGG [C26G A35U], for which the self-cleavage came out at 0.497.
As to AACAGAGCCAAUGCCGGUCCCAAGCCCGGAUAAAAGUGGAGGGGGCGG [C5G U6A], the self-cleavage is 0.404.
Consider AGCAAUGCCAAUGCCGGUCCCAAGCCCGGAUAAAAGUGGAGGGGGCGG [A2G C5A], for which the self-cleavage stood at 0.0588.
Then AACAUUGCCAAUGCCGGUCCCAAGCCCGGAUAAACGUGGAGGGGGCGG [C5U A35C], with 0.82; and AACACUGCCAAUGCCGGUCCCAAGCCUGGAUAAAAGUGGAGGGGGUGG [C27U C46U], with 0.822; and AACACUGCUAAUGCCGGUCCCAAACCCGGAUAAAAGUGGAGGGGGCGG [C9U G24A], with 0.0648.
